Measurements: paper doi:10.1101/2025.05.27.656304, “Structure of the conjugation surface exclusion protein TraT” (bioRxiv, 2025)

Target: the molecule itself
Assay: cryo-EM structure; purified TraT (12 mg/ml) in 100 mM Tris, 150 mM NaCl, 0.02% DDM, pH 8; global resolution 2.01 Å

B1: F plasmid TraT complex (Twin-Strep tagged recombinant TraT) (complex, Escherichia coli (F plasmid), UniProt P13979 22-244, looked up)
chain: CGAMSTAIKKRNLEVKTQMSETIWLEPASERTVFLQIKNTSDKDMSGLQGKIADAVKAKGYQVVTSPDKAYYWIQANVLKADKMDLRESQGWLNRGYEGAAVGAALGAGITGYNSNSAGATLGVGLAAGLVGMAADAMVEDVNYTMITDVQIAERTKATVTTDNVAALRQGTSGAKIQTSTETGNQHKYQTRVVSNANKVNLKFEEAKPVLEDQLAKSIANIL
modifications: lipid anchor on the N-terminal cysteine (density not resolved)
notes: TraT surface exclusion outer membrane lipoprotein of the E. coli F plasmid; the traT gene was cloned into a pET22b-derived vector; the protein in the structure begins at the lipidated N-terminal cysteine; Homodecamer by cryo-EM; also called TraTF; TraT-TS; copies: 10
stoichiometry N: 10
